According to US20200325212:

Experiments:
[1] = biological target: CTLA4-Fc MMP9 (MMP9-cleavable CTLA4-Fc mask; CTLA4-Fc_WT)
[2] = biological target: CTLA4-Fc Mxx9 (non-cleavable mask), P16410
[3] = biological target: T1, mLCN2-Fc (bivalent m-Lcn2 fused to human IgG1 Fc)
T1 chain: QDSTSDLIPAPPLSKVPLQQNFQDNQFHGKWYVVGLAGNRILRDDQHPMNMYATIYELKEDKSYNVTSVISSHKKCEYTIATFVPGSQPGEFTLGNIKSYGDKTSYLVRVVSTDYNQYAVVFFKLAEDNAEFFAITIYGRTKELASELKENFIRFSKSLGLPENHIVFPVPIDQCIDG

Chain of CTLA4-Fc MMP9 (MMP9-cleavable CTLA4-Fc mask; CTLA4-Fc_WT) (chain, as listed by the source): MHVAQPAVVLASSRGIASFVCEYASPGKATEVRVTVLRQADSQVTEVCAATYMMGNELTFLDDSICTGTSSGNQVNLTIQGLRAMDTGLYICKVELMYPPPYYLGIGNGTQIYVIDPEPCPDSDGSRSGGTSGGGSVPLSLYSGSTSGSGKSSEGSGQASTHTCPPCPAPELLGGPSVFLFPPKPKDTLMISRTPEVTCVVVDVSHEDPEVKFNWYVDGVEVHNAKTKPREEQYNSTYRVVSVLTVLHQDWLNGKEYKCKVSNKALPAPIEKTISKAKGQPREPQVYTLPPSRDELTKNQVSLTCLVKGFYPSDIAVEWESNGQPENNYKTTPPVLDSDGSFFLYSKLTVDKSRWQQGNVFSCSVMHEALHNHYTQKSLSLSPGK
Chain of CTLA4-Fc Mxx9 (non-cleavable mask), P16410 (P16410 whole entry, looked up, the tested form may be a part): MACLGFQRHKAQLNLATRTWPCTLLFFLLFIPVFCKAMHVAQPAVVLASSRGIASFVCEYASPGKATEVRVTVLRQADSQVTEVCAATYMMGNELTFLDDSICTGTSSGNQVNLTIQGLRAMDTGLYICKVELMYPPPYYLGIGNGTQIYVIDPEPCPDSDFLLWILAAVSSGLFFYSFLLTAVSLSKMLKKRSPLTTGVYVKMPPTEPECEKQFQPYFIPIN

B1: recombinant human MMP9 (ProSpecBio) (protein)
chain: APRQRQSTLVLFPGDLRTNLTDRQLAEEYLYRYGYTRVAEMRGESKSLGPALLLLQKQLSLPETGELDSATLKAMRTPRCGVPDLGRFQTFEGDLKWHHHNITYWIQNYSEDLPRAVIDDAFARAFALWSAVTPLTFTRVYSRDADIVIQFGVAEHGDGYPFDGKDGLLAHAFPPGPGIQGDAHFDDDELWSLGKGVVVPTRFGNADGAACHFPFIFEGRSYSACTTDGRSDGLPWCSTTANYDTDDRFGFCPSERLYTQDGNADGKPCQFPFIFQGQSYSACTTDGRSDGYRWCATTANYDRDKLFGFCPTRADSTVMGGNSAGELCVFPFTFLGKEYSTCTSEGRGDGRLWCATTSNFDSDKKWGFCPDQGYSLFLVAAHEFGHALGLDHSSVPEALMYPMYRFTEGPPLHKDDVNGIRHLYGPRPEPEPRPPTTTTPQPTAPPTVCPTGPPTVHPSERPTAGPTGPPSAGPTGPPTAGPSTATTVPLSPVDDACNVNIFDAIAEIGNQLYLFKDGKYWRFSEGRGSRPQGPFLIADKWPALPRKLDSVFEERLSKKLFFFSGRQVWVYTGASVLGPRRLDKLGLGADVAQVTGALRSGRGKMLLFSGRRLWRFDVKAQMVDPRSASEVDRMFPGVPLDTHDVFQYREKAYFCQDRFYWRVSSRSELNQVDQVGYVTYDILQCPED
- cleavage, SDS-PAGE [1]: Recombinant MMP9 was demonstrated to effectively cleave the CTLA4-MMP9-Fc mask
- intensity of the full-length band, time course of cleavage at 37 °C, SDS-PAGE [1]: At 2 h the intensity of the full-length band was ~50% of the 0 h timepoint
- cleavage, SDS-PAGE [2]: Addition of MMP9 had no effect on CTLA4-Fc Mxx9 bands.
- cleavage, SDS-PAGE [3]: but not the m-Lcn2-Fc
